From the DeepSol protein solubility set

Test: soluble on expression in E. coli; label from the status in PepcDB or PDB records
In the case of “MKKTDTLPATLSALIQEYSIAEGIQMAEQQVRENPAKALCRHSLFQLLCVAGDWSRALHQLQLCARMEANYTQEARLYRELVRCEMFRHTVFQGEQRPGFLLPQPVWVESLLAALACHDDTGEVDKHRNTALEAITDTGGQWNGGAFDWASDSDSRLGPVLELVTGGVYIWLPFSQIRSLESPQPTRLTDLLWKPVNITLVNGDTHGAWLFTRYSGSESASDALRLCRETAWQDGPGETTVRALGQKVWLTSHGDISLLDMAHCTFHAQENDGA”, the “soluble on expression in E. coli” value is reported as “not soluble”.
For “AHHHHHHGSKDDIVESVETLVRKGMIEEAIKIVENLQENFDKVIALCKIAELTRDESFLEDAIYFLKKIKDHDNKAIGYGEVAKVYALLGYEEESLELFEEAVKLTKNLNPVDKAITLTILANRLALAGFVDLSLEMFQNAFAEIIELNIELTKKTDLIIQLAEILEASGDALDSENALKFYEMAQDIYKNLKLGQREGIIEKKIELTRTLMHTSYPDIRKLAYEGRFIQALHEIEKRFGGNNVIPLLELTAWAYKTNVFERLKLKEITMEKLSASKLSDEEKFKVVQLLLEIDDTLKAYEIAITLESQELREKALVLIGLKMIDEGEVRFVEEKIFPLLSDEKREEFINFLKNLPIA”, the “soluble on expression in E. coli” value was “soluble”.
In the case of “MGSDKIHHHHHHMLDPRSVPFAAQIHPQARPARRLTWDSREAGPDTAFVALPGEKMHGNRFVERALAAGAPFVLTDLDVPRAVRVDDARGALFAWARSERAKNPLVVGITGSAGKTTAKSYAAAALDAHFMPVFNTMPAIACFLVQYGASQKPLVVEMGIDHIGEMAELMDLVRPDVGVVTTIGPAHLEQFGMVETIAHEKGQILTARRALVGSQAAAFFPKAQFPHVDSYGFGDVTFRGEGLELSPQAARFRFGGMGVILPLASRVQAEAAVLGMVLAREAGIALADAAVRMSAVEVPGGRYRLHPGRFTVIDDAYNASPVAVRAALDALHALKPEGEVGRRISVLGRMLELGPTERELHAEVGSYAREQADLTYGVGEFAQELGERAFATVPELLADLLNEVRDGDIVLVKASRGISLTPEQRAVTGVGLDVVVEALLDQRDR”, the “soluble on expression in E. coli” value is reported as “not soluble”.
For “NDPDADRFALAARKPDGGYKMLTGDQVGTLFGHYLLTHTEASGKLVGNTIVSSTLLKKIAESMGAEYFQTLTGFKWLTNVAMQKETKEKQFLFAYEEALGYTIGSQVWDKDGLSALVAFAQLTAELATQGKCVWDQLESIYRQHGIHIN”, the “soluble on expression in E. coli” value was “not soluble”.
For “MGSDKIHHHHHHMSTIQIKQLNFAYDGQAPLFTNTTLDLDTNWHLGLVGRNGRGKTTLLRILQQALPYSGTVTVPLQLQYFPQTLDETQLTLTAAQAITDVAQWQLERELNLLHADPNILWRPFVDLSGGEQTKVRLALLFIQDNGVALIDEPTNHLDLRSRRQVAAYLQQKPGFIVVSHDRDFLDSITDHTLAIQRQQITLYQGNFSTFMTEKERQDQTELAKNGQLKTEITRLKRTTHDKKVWAENKEKSIYGNPHIKDSGHNAGRGFISARAARTMKKSKNLEHRMTKEIDEKESLLKNLEKVDPLTMLPVSTHHHQLVVAEKVQVGFDQPLFQPISFTLTRGDRIAIVGDNGSGKSTLIRALLKQFTGMQSGHLTLAPVSLSLVRQQYTDNRGTLVDFAKQHQLSRETLLNNLRKLGMPRADFNTSIEHLSMGQQKKVELARSLATPGALYVWDEPLNYLDTYNQDQLVAAIKHYQPTMLFVEHDEHFIEQVATKIIRLQP”, the “soluble on expression in E. coli” value was “not soluble”.
With “MSLVIYMIGGSPCSGKSTIASLLARQYQLLHIKLDDLVDEMMSQASADSQPICLLRQDRNPEQIWMRNPKEMADEEWRFYEEIFPYVKSYLIKKDRPLLVEGAGLLPHLVKELEWPASSYLCLTPTADFQKKHYRQREWVSYVLEGTTNPEQAFENWMQRDILFAQMVRKEAMRLGYSSLMTDGSQSEKQTAEEIARLLKLYNINEIDIKGENEGHHHHHH” the “soluble on expression in E. coli” value was “soluble”.
With “MRTVSTVAELRAALPREGVGFVPTMGYLHRGHLALVERARRENPFVVVSVFVNPLQFGPGEDYHRYPRDLERDRALLQEAGVDLLFAPGVEEMYPEGFATRVQVEGPLTALWEGAVRPGHFQGVATVVARLFLLVQPQRAYFGEKDYQQLLVVRRMVRDLGFPVEVVGVPTVREEDGLALSSRNVYLSPETRKKAPVLYRALLAMREVAGQGGSVAEALRAGEEALRAVPEFRKDYLAIVHPETLLPLSDWVAGARGIVAGRFPEARLIDNLEVYP” the “soluble on expression in E. coli” value was “soluble”.
For “MKKYLILVGSPPACGKTYVSGELAKRLNNPVYLDKDTVIPLSKMVFKAANQPYNRDSDFFKEYVRDAEYIVTFDLAFESLNYNNCVIVNAPFSKEFRDKGYMNNLKNKLKKYNAELIPVWVSCDIDVCHKRMIKRNSDRDTWKLNNWDEYVKGQNYTTPDLEGLFVVDNSSNEDFEAGLKKLLEKVLLEHHHHHH”, the “soluble on expression in E. coli” value was “soluble”.
